1 substance from PMC12912723 can be followed below.

For this assay, the target named is PscF from strain PAO1 (Pseudomonas aeruginosa) (UniProt P95434). Kind of assay: ELISA; competition with biotinylated P1D8.

“P1D8 (human anti-PscF monoclonal antibody) (from UniProt P01857)” yielded an IC50 of 0.01 µg/mL.
